Reference: PMC6702222, “Visualizing structural transitions of ligand-dependent gating of the TRPM2 channel” (Nature Communications, 2019)

Biological target: the molecule itself
Assay: cryo-EM structure; TRPM2DR in digitonin, Ca2+-free buffer, incubated with 1 mM EDTA (ligand-free); refined with C4 (~4.3 A) and C2 (~4.5 A) symmetry

B1: Danio rerio (zebrafish) transient receptor potential melastatin 2 channel, full-length wild type (natural protein, UniProt A0A0R4IMY7 1-1470, looked up)
chain: MDEAALEPTLVQTLAVSTAKGGRYLSLSPSFQRCSLASWIKENIKKKECCFYVEDGREGICKCGYPKVQHCDEAIKPEDYMGEQWDKHRHVRETPTDAFGDISFGGLGQKTGKYVRVSSDTSCENLYQLMTEQWKLRSPNLLISVTGGAKNFYIKTHLKDKFRRGLIKVAQTTGAWILTGGTHAGVMKHVGMAVRDYTLSSGSMEGQIVVIGVAPWGVIHNRSTLIHPEGRFPAYYSLDEQGQGRLSCLDINHTHFLLVDDGTQGHYGVEIELRARLEKLISKLSLGNRESGVTIPVVCVVLDGGPGTLNTIYNSMLNHTPCVVLEGSGRLADVIAHVASVPVSKVTMALINRLLKRFFMQEYKNFTELQIIEWTKKIQDILRMPHLLTVFRIDEDKNYDVDVAILQALLKASRSDEHAGRHCWERQLELAVAWNRVDIAESEIFTEESQWTSSDLHPAMFSALVGDKPEFVRLLLENGVCVREFLEREETLCELYSHLPSCFFLRKLAKRVQGGKMRRGQEPLPGSRKVCLSHVSEEVRHLLGSFTQPLYIASRYKPTKDDVRLKVPSKGALDLPCSGEEWSADTVWDPGRDLFLWAVVQNNRELAEIGWEQCRDCIAAALAASKILRKLAQESGEDDSEEATEMLELANHYEKQAIGVFSECHSWDAQRAQKLLIRISPSWGRSTCLWLALEAHDKSFIAHSGVQALLTQIWCGELSVDNPHWKVLLCMIFFPLIYTGFLTFRRDEDIQRQAERTEQQKLAMESVFAGQSDGKIKRHLRGFSQKSELKPLNCSSRLMSFLKSPQVKFYWNIASYFGFLWLFAVVLMIDFQTSPSWRELLLYVWLTSLVCEEIRQLYHDFDGSGFRRKAKMYIKDLWNILDVLSIVLFIAGLICRLQASDTVFYIGKVILCIDFIIFCLRLMAIFSISRTLGPKIIIVRRMMLDLFFFMFLLSIWVVAYGVAKQGILIENEERLNWIIRGAVYEPYITIFGNFPTNIDNTLFDISSCSVNASDPLKPKCPMLNADNTPVFPEWLTIMMLCVYLLFANILLLNLLIAIFNYTFQEVQDNTDTIWKFQRYELIKEYHSRPALPPPFILLSHLILFIRGVFLRDLPQRHKNFRQELEQTEEEELLSWEAYMKDNYLASTRQDESQSVEHRIHDTAEKVGAMSELLEREQEMVSATMAKRLARLEEQVSESAKALRWIIDALKSQGCKSKVQPPLMRSKSSDRDDGDSSGQETDDEEAPHMFARQLQYPDSTVRRFPVPEEKVSWEVNFSPYQPPVYNQQDSSESDTSALDKHRNPGGRTGIRGKGALNTLGPNHILHPIFTRWRDAEHKVLEFLAVWEDAEKRWALLGGPAQPDEPLAQVLERILGKKLNEKTKTLLKAGEEVYKGYVDDSRNTDNAWVETSIITLHCDKNTPLMADLNHMVESSLSSHQPLQWREVSSDACRCSYQREALRQIAHHHNTYF
notes: TRPM2, zebrafish (Danio rerio), NCBI XP_009303266.1, full-length wild type from a codon-optimized synthetic gene; Homo-tetramer in all cryo-EM reconstructions; also called TRPM2DR; TRPM2; source: for the ADPR/Ca2+ sample reconstituted into amphipol PMAL-C8
- stoichiometry N: 4
